The text below walks through data of US20200277405A1, “COMPOSITION FOR ANTIBODY-DRUG CONJUGATE DIRECTED AGAINST TUMOR-CELL ASSOCIATED POLYSIALIC ACID” (Cornell University, priority 2019, published 2020).

Experiment [1] concerns SW2 cells. The experiment is described as follows: Colocalization microscopy, SW2. In kind it is cell-based, human. To be noted: transferrin and LAMP-3 markers. Here is the method:
FIGS. 12A-12C depict colocalization of mo735 with markers that traffic to endolysosomal compartments. […] For LAMP-1 (right), confocal microscopic images were taken after labeling SH-SY5Y cells with ch735 or isotype antibody for 2 h. Following fixation and permeabilization, LAMP-1 antibody was applied and detected with anti-rabbit AF647 secondary. Anti-human IgG AF488 was used to detect ch735 or isotype antibody. […] Cross-sectional fluorescence profiles are shown at right with normalized pixel intensity for selected cells (marked with box in left confocal panels) versus distance across the cell for representative cross sections (marked with bar in right confocal panels).
SH—SY5Y or SW2 cells were plated at 20,000 cells/cm^2 on poly-L-lysine coated 35 mm glass bottom dishes and adhered overnight. To remove polySia, cells were treated as described above. To measure receptor-antibody internalization, cells were incubated with 150 nM AF488 labeled ch735, human IgG isotype control (ThermoFisher Scientific), mo735, or mouse IgG isotype control (anti-MBP mAb, NEB) and 100 nM AF647 transferrin or AF647 anti-LAMP-3 antibody (Santa Cruz) for 1 h. Cells were washed and then fixed as described above. […] The fluorescence intensity of the plot profile was analyzed using FIJI software. Fluorescence intensity was normalized to the maximum value for each channel.

Experiment [2] relates to cells and tissues. The settings on record: previously published IHC results (Zhang et al.); cited from earlier work.
In experiment [3] the test system is SW2 cells. In words: Supplementary internalization assays. In kind it is cell-based, human. To be noted: increases with concentration and time. From the text:
FIGS. 11A-11D depict internalization of mo735 by polySia-expressing cancer cells. […] Trypan blue was used to quench extracellular fluorescence. […] Cell membranes were labeled with wheat germ agglutinin (WGA,) and nuclei were stained with Hoescht. Scale bar, 10 μm. […] Cell membranes were labeled with wheat germ agglutinin (WGA) and nuclei were stained with Hoescht. Scale bar, 10 μm. […] Images include external mo735 detected with anti-mouse AF488, internal mo735 detected with anti-mouse AF647, nuclei stained with Hoescht, and a merged image. Scale bar, 10 μm.
For supplementary internalization assays, AF488-labeled isotype and mo735 antibodies were incubated with trypsinized SW2 cells at various concentrations for 2 h. Upon measurement in the flow cytometer, the extracellular fluorescence was quenched using trypan blue (final concentration 0.2%). For each sample, the mean fluorescence intensity (MFI) of 10,000 cells was measured in triplicate. […] Antibody internalization was also assessed according to the protocol described by Schmitz and coworkers (Diestel et al., “NCAM is Ubiquitylated, Endocytosed and Recycled in Neurons,” J. Cell. Sci. 120:4035-49 (2007), which is hereby incorporated by reference in its entirety), cells were incubated for 1 or 4 h at 37° C. with 150 nM mo735 in cell culture media. […]

The target of experiment [4] is embryonic brain glycopeptides. The settings on record: against embryonic brain glycopeptides (Hayrinen et al.); read-out: previously reported Kd; cited from earlier work.
The conditions of experiment [5]: previous SPR and ITC experiments; cited from earlier work. For orientation: ITC needs no label: the signal is the heat of the interaction.
The test system of experiment [6] is polySia-positive cell lines SH-SY5Y, SW2, H69, and H82. In words: Internalization assay, polySia-positive cell lines. In kind it is cell-based, human. The settings on record: after 1 h at 37° C.; each polySia-positive cell line. As for the experimental part:
(§1) FIGS. 10A-10E depict internalization of ch735 into polySia-positive cancer cells. […] Nuclei were stained by Hoescht (blue). Scale bar, 10 Fluorescence intensity was measured across the dotted line and normalized to the maximum value in each channel. Arrows indicate regions of colocalization. […] Nuclei were stained by Hoescht. Scale bar, 10 Fluorescence intensity was measured across the dotted line and normalized to the maximum value in each channel. Arrows indicate regions of colocalization. The inset show only the ch735 and DNA channels of the boxed region. […] Scale bar, 10 Fluorescence intensity was measured across the dotted white line and normalized to the maximum value in each channel. […]
(§2) To calculate percent internalization, pre-chilled cells were incubated with 50 nM ch735 on ice for 1 h and then washed to remove unbound antibodies. […] Cells were fixed in 2% paraformaldehyde for 20 min and then stained with AF488-labeled antibody against human IgG and analyzed by flow cytometry and FlowJo software. Receptor-antibody complex internalization was calculated using the geometric mean as percent fluorescent intensity loss at 37° C. relative to that on ice. For each sample, the geometric mean fluorescence intensity (MFI) of 10,000 cells was measured in triplicate.

Experiment [7] concerns polySia-negative MCF7 cells. The experiment is described as follows: Internalization assay, MCF7. In kind it is cell-based, human. The settings on record: after 1 h. Here is the method:
as §1, §2

The subject of experiment [8] is SH-SY5Y cells. In words: Colocalization microscopy, SH-SY5Y. To be noted: transferrin, LAMP-3, LAMP-1 markers. Type of experiment: cell-based, human. As for the experimental part: as §1
FIGS. 12A-12C depict colocalization of mo735 with markers that traffic to endolysosomal compartments. […] Following fixation and permeabilization, LAMP-1 antibody was applied and detected with anti-rabbit AF647 secondary. […] Cross-sectional fluorescence profiles are shown at right with normalized pixel intensity for selected cells (marked with box in left confocal panels) versus distance across the cell for representative cross sections (marked with bar in right confocal panels).
SH—SY5Y or SW2 cells were plated at 20,000 cells/cm^2 on poly-L-lysine coated 35 mm glass bottom dishes and adhered overnight. […] The fluorescence intensity of the plot profile was analyzed using FIJI software. […]

B1: mo735: well-known mouse-derived IgG2a monoclonal antibody 735 targeting polysialic acid (antibody, V domains shown)
VH: QIQLQQSGPELVRPGASVKISCKASGYTFTDYYIHWVKQRPGEGLEWIGWIYPGSGNTKYNEKFKGKATLTVDTSSSTAYMQLSSLTSEDSAVYFCARGGKFAMDYWGQGTSVTVSS
VL: DVVMTQTPLSLPVSLGDQASISCRSSQSLVHSNGNTYLYWYLQKPGQSPKPLIYRVSNRFSGVPDRFSGSGSGTDFTLKISRVEAEDLGVYFCFQGTHVPYTFGGGTRLEIK
B1: in experiment [1], the “compartments of accumulation after internalization (confocal)” value was “compartmentalized in early and recycling endosomes”. Moreover, in experiment [2], the “IHC reactivity with cells and tissues” value was “reacted with only a limited number of cells and tissues”. Moreover, the antibody internalization result in experiment [3] is on record as “comparable internalization”. The equilibrium dissociation constant (Kd) in experiment [4] was approximately 5 nM. For the same molecule, the “preferred polySia chain length” value in experiment [5] is on record as 8-11 sialic acid residues.

B2: ch735: chimeric human IgG1 polySia-specific mAb made by swapping variable regions of mouse mAb 735 (antibody, V domains shown)
VH: B1 VH
VL: B1 VL
The molecule B2 displayed an antibody internalized in experiment [6] of approximately 40%. For the same molecule, the antibody internalization result in experiment [7] was “no internalization”. The “compartments of accumulation after internalization (confocal)” value in experiment [8] is given as “rapidly internalized in endosomal/lysosomal compartments”.

For orientation: Kd means the equilibrium constant for the complex coming apart.
